Values quoted from earlier work, collected in patent US20060182683A1, “Methods for reduced renal uptake of protein conjugates” (Center for Molecular Medicine and Immunology, priority 1995, published 2006).

Key:
[1] = biological target: T1, mammalian placental ribonuclease inhibitor (Homo sapiens, UniProt P13489); conditions: cited from earlier work
T1 sequence (P13489 1-461): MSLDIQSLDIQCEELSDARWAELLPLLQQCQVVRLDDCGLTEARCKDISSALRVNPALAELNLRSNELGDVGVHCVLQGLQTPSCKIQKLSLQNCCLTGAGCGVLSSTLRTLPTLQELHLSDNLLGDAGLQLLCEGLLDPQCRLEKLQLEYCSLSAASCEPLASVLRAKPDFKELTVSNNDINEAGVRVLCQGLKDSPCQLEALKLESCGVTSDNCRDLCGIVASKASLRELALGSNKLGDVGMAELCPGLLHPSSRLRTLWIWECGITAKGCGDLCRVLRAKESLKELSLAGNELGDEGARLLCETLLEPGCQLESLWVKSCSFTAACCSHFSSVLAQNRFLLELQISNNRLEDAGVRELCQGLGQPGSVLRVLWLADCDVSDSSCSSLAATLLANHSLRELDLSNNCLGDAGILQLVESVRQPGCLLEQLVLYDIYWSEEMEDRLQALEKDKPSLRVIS

[2] = test system: patients suffering from a variety of relapsing and resistant tumors; conditions: intravenous; mainly due to renal toxicity; cited from earlier work
[3] = test system: Xenopus oocytes; conditions: microinjected into Xenopus oocytes; read-out: IC50, inhibition of protein synthesis; cited from earlier work
[4] = test system: M109 Madison lung carcinoma; conditions: cited from earlier work
[5] = test system: rats; conditions: dose range 0.01-0.02 mg/kg; cited from earlier work
[6] = test system: protein synthesis in a rabbit reticulocyte lysate; conditions: read-out: IC50, inhibition of protein synthesis; cited from earlier work
[7] = test system: dogs; conditions: 0.005-0.15 mg/kg; cited from earlier work

B1: ranpirnase (protein, UniProt P22069 1-104, looked up)
Protein P-30: QDWLTFQKKHITNTRDVDCDNIMSTNLFHCKDKNTFIYSRPEPVKAICKGIIASKNVLTTSEFYLSDCNVTSRPCKYKLKKSTNKFCVTCENQAPVHFVGVGSC
notes: non-mammalian ribonuclease (RNAse), molecular weight 12,000, purified from Rana pipiens oocytes and early embryos
**Q.** Which results are given for B1?
**A.** inhibition by mammalian placental ribonuclease inhibitor [1]: not inhibited; maximum tolerated dose [2]: 960 μg/m^2; IC50 [3]: 0.1 nM; survival ([4]; daily and weekly schedules, intraperitoneal): significantly prolonged survival; animals surviving long-term, apparently cured ([4]; weekly schedule): six of eighteen; toxicity [5]: predictable, dose-dependent and reversible toxicity; IC50 [6]: 0.01 nM; toxicity [7]: predictable, dose-dependent and reversible toxicity
